The text below walks through data of patent US7049080B2, “Process for detecting serine/threonine kinase activity” (priority 2000, dated 2006).

A word on the Kd: it is a measure of binding affinity in units of concentration.

Non-standard residues stand in square brackets, D forms with d. *: point of attachment. 5‑TAMRA = CN(C)c1ccc2c(-c3ccc(C(=O)*)cc3C(=O)[O-])c3ccc(N(C)C)cc3[o+]c2c1; pY = N[C@@H](Cc1ccc(OP(=O)(O)O)cc1)C(=O)O; pT = C[C@@H](OP(=O)(O)O)[C@H](N)C(=O)O; AEEA = NCCOCCOCC(=O)O

The target of data set [1] is polyclonal phospho-JNK antibody NEB #9251. In words: Binding of polyclonal phospho-JNK antibody to TAMRA-labelled peptides (fluorescence polarization). Set-up: species or system rabbit. To be noted: antibody 1:20, peptide 5 nM, read-out: KD, affinity of polyclonal phospho-JNK antibody for peptide. The source says:
The polarization values dramatically increase when using the double-phosphorylated peptide substrate P1*^∘ in contrast to mono-phosphorylated labelled peptide P1^∘ (sequence see above).
Measurement of the Binding Affinity (KD) of Antibody NEB #9251:
This polyclonal antibody detects all three isoforms of the SAPK1/JNK proteins only when they are activated by dual phosphorylation at threonine183/tyrosine185. Binding of poly-clonal phospho-JNK antibody (at a dilution of 1:20) from NEB to TAMRA-labelled P1^∘- and P1*^∘ peptides (each 5 nM) was measured by fluorescence polarization.
(In fluorescence polarisation assays a small probe gives low polarisation when free and higher when bound to something large.)

The test system of data set [2] is NEB antibody #9251. In words: FP controls conjugate/high/low (Example 8). It is filed as binding, rabbit. Particulars: 0 h. Here is the method:
The following reagents have been used (explanations later on): Hepes buffer, MgCl2 (10 mM), ATP (20 μM), P1^∘ peptide (100 μM), polyclonal antibody NEB #9251 (1:20), P1*^∘-TAMRA (5 nM), Pluronic (0.1%), BSA (0.01%), MKK7 at (0.04, 0.08 and 0.2 μM), EDTA (10 mM) (all final conc.).
The enzyme reactions were performed in Eppendorf reaction tubes at RT. Aliquots of 20 μl were withdrawn from the reactions at different time points and mixed with 10 μl STOP solution. The stopped reactions were incubated at RT for at least 30 min and measured by Fluorescence Polarization.
(§1) Bis-phosphorylated peptide P1*^∘ can be used as competitor, resulting in free labelled ligand called “low” or “negative control”. This can be seen in the following table 1.

Data set [3] concerns NEB antibody #9251. Description: FP controls conjugate/high/low (Example 7). It counts as binding, rabbit. Particulars: 0 h. Here is the method:
The following reagents have been used (the compositions of the buffers and specifications of the reagents are explained in more detail later on): Hepes buffer, MgCl2 10 mM, ATP 20 μM, P1^∘ peptide at 100 μM, NEB antibody # 9251 1:20 dilution, P1*^∘-TAMRA 5 nM, Pluronic 0.1%, MKK7 at 0, 0.005, 0.02, 0.08, 0.2, 0.5 and 2 μM.
After addition of MKK7, the enzyme reactions were performed in Nunc chambers at RT. The samples were continuously measured at different time points by Fluorescence polarization.
as §1

Data set [4] has as its system T1, P1° peptide, H-Lys-Phe-Met-Met-Thr-Pro-pTyr-Val-Val-Thr-Arg-NH2.
T1 sequence: KFMMTPYVVTR

[5] abbreviates: Low: P1*°-Tamra + NEB ab (1:20) + competitor 200 nM.

As for “5-TAMRA-AEEA-Lys-Phe-Met-Met-pThr-Pro-pTyr-Val-Val-Thr-Arg-NH2 ({5‑TAMRA-AEEA}-KFMM[pT]P[pY]VVTR-NH2; SMILES CSCC[C@H](NC(=O)[C@H](Cc1ccccc1)NC(=O)[C@H](CCCCN)NC(=O)COCCOCCNC(=O)c1ccc(-c2c3ccc(N(C)C)cc3[o+]c3cc(N(C)C)ccc23)c(C(=O)[O-])c1)C(=O)N[C@@H](CCSC)C(=O)N[C@H](C(=O)N1CCC[C@H]1C(=O)N[C@@H](Cc1ccc(OP(=O)(O)O)cc1)C(=O)N[C@H](C(=O)N[C@H](C(=O)N[C@H](C(=O)N[C@@H](CCCNC(=N)N)C(N)=O)[C@@H](C)O)C(C)C)C(C)C)[C@@H](C)OP(=O)(O)O) [P1*^∘-TAMRA]”, the Kd in data set [1] is 2.6 nM. Further, the “Fluorescence Polarization” value came to 33.2 mP in the data set with NEB antibody #9251 [2] (Conjugate alone), 145.7 mP in the data set with NEB antibody #9251 [2] (High: + NEB ab (1:20)), 39.7 mP with NEB antibody #9251 [3] (Conjugate alone) and 139.1 mP in the data set with NEB antibody #9251 [3] (High: + NEB ab (1:20)).
Turning to “H-Lys-Phe-Met-Met-Thr-Pro-pTyr-Val-Val-Thr-Arg-NH2 (H-KFMMTP[pY]VVTR-NH2; SMILES CSCC[C@H](NC(=O)[C@H](Cc1ccccc1)NC(=O)[C@@H](N)CCCCN)C(=O)N[C@@H](CCSC)C(=O)N[C@H](C(=O)N1CCC[C@H]1C(=O)N[C@@H](Cc1ccc(OP(=O)(O)O)cc1)C(=O)N[C@H](C(=O)N[C@H](C(=O)N[C@H](C(=O)N[C@@H](CCCNC(=N)N)C(N)=O)[C@@H](C)O)C(C)C)C(C)C)[C@@H](C)O) [P1^∘]”, the “Fluorescence Polarization” value with NEB antibody #9251 [2] (setting [5]) is 71.5 mP.
With “H-Lys-Phe-Met-Met-pThr-Pro-pTyr-Val-Val-Thr-Arg-NH2 (H-KFMM[pT]P[pY]VVTR-NH2; SMILES CSCC[C@H](NC(=O)[C@H](Cc1ccccc1)NC(=O)[C@@H](N)CCCCN)C(=O)N[C@@H](CCSC)C(=O)N[C@H](C(=O)N1CCC[C@H]1C(=O)N[C@@H](Cc1ccc(OP(=O)(O)O)cc1)C(=O)N[C@H](C(=O)N[C@H](C(=O)N[C@H](C(=O)N[C@@H](CCCNC(=N)N)C(N)=O)[C@@H](C)O)C(C)C)C(C)C)[C@@H](C)OP(=O)(O)O) [P1*^∘]”, in the data set on NEB antibody #9251 [3] (setting [5]), the “Fluorescence Polarization” value is on record as 84.5 mP.
In data set [4], “MKK7 kinase (Upstate Biotech cat. no. 14-366)” gave an FP, 100 µM P1°, MKK7 0.005 µM, 0 h of 132 mP; an FP, 100 µM P1°, MKK7 0.005 µM, 0.5 h of 137 mP; an FP, 100 µM P1°, MKK7 0.005 µM, 1 h of 137 mP; an FP, 100 µM P1°, MKK7 0.005 µM, 1.5 h of 137 mP. In data set [4], this substance had an FP, 100 µM P1°, MKK7 0.005 µM, 3 h of 138 mP; an FP, 100 µM P1°, MKK7 0.02 µM, 0 h of 135 mP; an FP, 100 µM P1°, MKK7 0.02 µM, 0.5 h of 140 mP; an FP, 100 µM P1°, MKK7 0.02 µM, 1 h of 141 mP. In addition, in data set [4], the FP, 100 µM P1°, MKK7 0.02 µM, 1.5 h is 140 mP; the FP, 100 µM P1°, MKK7 0.02 µM, 3 h worked out at 140 mP; the FP, 100 µM P1°, MKK7 0.08 µM, 0 h turned out to be 134 mP; the FP, 100 µM P1°, MKK7 0.08 µM, 0.5 h came to 138 mP. In data set [4], the FP, 100 µM P1°, MKK7 0.08 µM, 1 h is 136 mP; the FP, 100 µM P1°, MKK7 0.08 µM, 1.5 h stood at 128 mP; the FP, 100 µM P1°, MKK7 0.08 µM, 3 h is 115 mP; the FP, 100 µM P1°, MKK7 0.2 µM, 0 h was found to be 135 mP. In data set [4], this substance gave an FP, 100 µM P1°, MKK7 0.2 µM, 0.5 h of 132 mP; an FP, 100 µM P1°, MKK7 0.2 µM, 1 h of 122 mP; an FP, 100 µM P1°, MKK7 0.2 µM, 1.5 h of 114 mP; an FP, 100 µM P1°, MKK7 0.2 µM, 3 h of 105 mP. In data set [4], this substance returned an FP, 100 µM P1°, MKK7 0.5 µM, 0 h of 135 mP; an FP, 100 µM P1°, MKK7 0.5 µM, 0.5 h of 126 mP; an FP, 100 µM P1°, MKK7 0.5 µM, 1 h of 115 mP; an FP, 100 µM P1°, MKK7 0.5 µM, 1.5 h of 109 mP. In data set [4], this substance came in with an FP, 100 µM P1°, MKK7 0.5 µM, 3 h of 107 mP; an FP, 100 µM P1°, MKK7 1.0 µM, 0 h of 136 mP; an FP, 100 µM P1°, MKK7 1.0 µM, 0.5 h of 120 mP; an FP, 100 µM P1°, MKK7 1.0 µM, 1 h of 112 mP. In data set [4], this substance came in with an FP, 100 µM P1°, MKK7 1.0 µM, 1.5 h of 105 mP; an FP, 100 µM P1°, MKK7 1.0 µM, 3 h of 108 mP; an FP, NEB ab in STOP sol., MKK7 0.04 µM, 0 h of 147 mP; an FP, NEB ab in STOP sol., MKK7 0.04 µM, 0.5 h of 142 mP. In data set [4], the FP, NEB ab in STOP sol., MKK7 0.04 µM, 1 h stood at 140 mP; the FP, NEB ab in STOP sol., MKK7 0.04 µM, 1.5 h was determined as 136 mP; the FP, NEB ab in STOP sol., MKK7 0.04 µM, 2 h is 134 mP; the FP, NEB ab in STOP sol., MKK7 0.04 µM, 3 h was 138 mP. Further, in data set [4], the FP, NEB ab in STOP sol., MKK7 0.08 µM, 0 h came out at 143 mP; the FP, NEB ab in STOP sol., MKK7 0.08 µM, 0.5 h is 139 mP; the FP, NEB ab in STOP sol., MKK7 0.08 µM, 1 h amounted to 134 mP; the FP, NEB ab in STOP sol., MKK7 0.08 µM, 1.5 h is 122 mP. For the same substance, in data set [4], the FP, NEB ab in STOP sol., MKK7 0.08 µM, 2 h is 116 mP; the FP, NEB ab in STOP sol., MKK7 0.08 µM, 3 h worked out at 125 mP; the FP, NEB ab in STOP sol., MKK7 0.2 µM, 0 h was 148 mP; the FP, NEB ab in STOP sol., MKK7 0.2 µM, 0.5 h was 130 mP. In data set [4], this substance gave an FP, NEB ab in STOP sol., MKK7 0.2 µM, 1 h of 114 mP; an FP, NEB ab in STOP sol., MKK7 0.2 µM, 1.5 h of 103 mP; an FP, NEB ab in STOP sol., MKK7 0.2 µM, 2 h of 99.2 mP; an FP, NEB ab in STOP sol., MKK7 0.2 µM, 3 h of 119 mP. Also, in data set [4], the FP, NEB ab in reaction, MKK7 0.04 µM, 0 h is 150 mP; the FP, NEB ab in reaction, MKK7 0.04 µM, 0.5 h came out at 128 mP; the FP, NEB ab in reaction, MKK7 0.04 µM, 1 h was found to be 126 mP; the FP, NEB ab in reaction, MKK7 0.04 µM, 1.5 h is 113 mP. In addition, in data set [4], the FP, NEB ab in reaction, MKK7 0.04 µM, 2 h was determined as 110 mP; the FP, NEB ab in reaction, MKK7 0.04 µM, 3 h came to 78.6 mP; the FP, NEB ab in reaction, MKK7 0.08 µM, 0 h is 138 mP; the FP, NEB ab in reaction, MKK7 0.08 µM, 0.5 h came out at 122 mP. Moreover, in data set [4], the FP, NEB ab in reaction, MKK7 0.08 µM, 1 h came to 106 mP; the FP, NEB ab in reaction, MKK7 0.08 µM, 1.5 h was found to be 86.4 mP; the FP, NEB ab in reaction, MKK7 0.08 µM, 2 h was found to be 84.5 mP; the FP, NEB ab in reaction, MKK7 0.08 µM, 3 h came out at 65 mP. In data set [4], this substance registered an FP, NEB ab in reaction, MKK7 0.2 µM, 0 h of 137 mP; an FP, NEB ab in reaction, MKK7 0.2 µM, 0.5 h of 101 mP; an FP, NEB ab in reaction, MKK7 0.2 µM, 1 h of 83.1 mP; an FP, NEB ab in reaction, MKK7 0.2 µM, 1.5 h of 78.1 mP. Besides, in data set [4], the FP, NEB ab in reaction, MKK7 0.2 µM, 2 h was determined as 72.1 mP; the FP, NEB ab in reaction, MKK7 0.2 µM, 3 h stood at 59.4 mP; the “Km for P1° peptide (read-out: fluorescence polarization)” value is listed as “Km=94 nM±59 nM”; the “phosphorylation of P1° peptide substrate by MKK7 kinase” value is “Efficient phosphorylation of P1° peptide is measured”.
